Reference: US20200347130A1 (JIANGSU HENGRUI MEDICINE, published 2020)
Where a chain is given by its changes, count along the chain named.

T1: CD96 extracellular region with His tag (CD96-His) (human, UniProt P40200 22-519)
T1 construct: also called CD96-ECD-His; Bio-CD96-His (biotin-labelled form)
T1 sequence: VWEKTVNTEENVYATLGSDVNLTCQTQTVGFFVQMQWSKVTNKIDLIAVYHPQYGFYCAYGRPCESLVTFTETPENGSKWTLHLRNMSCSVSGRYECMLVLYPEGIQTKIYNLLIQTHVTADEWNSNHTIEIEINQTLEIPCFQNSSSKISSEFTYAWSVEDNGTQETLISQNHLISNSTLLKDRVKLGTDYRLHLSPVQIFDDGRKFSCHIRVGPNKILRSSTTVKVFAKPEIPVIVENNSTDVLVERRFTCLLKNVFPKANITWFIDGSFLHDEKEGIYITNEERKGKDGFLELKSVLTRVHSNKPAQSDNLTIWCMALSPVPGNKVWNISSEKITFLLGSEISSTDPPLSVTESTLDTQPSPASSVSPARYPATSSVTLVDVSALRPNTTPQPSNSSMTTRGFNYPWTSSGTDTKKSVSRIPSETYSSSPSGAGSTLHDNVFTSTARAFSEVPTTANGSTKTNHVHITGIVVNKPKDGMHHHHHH

T2: Monkey CD96-3xFlag (cyno-CD96-3xFLAG) (cynomolgus monkey)
T2 construct: Signal peptide marked only by lost underlining; also called cynomolgus CD96
T2 chain: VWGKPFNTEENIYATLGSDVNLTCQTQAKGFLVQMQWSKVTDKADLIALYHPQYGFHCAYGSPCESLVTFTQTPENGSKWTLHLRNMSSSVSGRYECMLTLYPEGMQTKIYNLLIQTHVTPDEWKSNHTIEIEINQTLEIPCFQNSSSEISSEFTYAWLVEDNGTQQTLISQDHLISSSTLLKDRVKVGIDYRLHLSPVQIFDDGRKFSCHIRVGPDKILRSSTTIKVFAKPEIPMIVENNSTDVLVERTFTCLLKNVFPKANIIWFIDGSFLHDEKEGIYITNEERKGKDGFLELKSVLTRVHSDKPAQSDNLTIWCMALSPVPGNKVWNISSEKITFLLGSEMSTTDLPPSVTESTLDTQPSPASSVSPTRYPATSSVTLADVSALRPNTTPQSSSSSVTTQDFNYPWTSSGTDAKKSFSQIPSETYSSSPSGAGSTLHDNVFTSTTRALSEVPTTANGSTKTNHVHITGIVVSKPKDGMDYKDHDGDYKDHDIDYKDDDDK

B1: h1721-003 (antibody, V domains shown)
VH: EVTLKESGPVLVKPTETLTLTCTVSGFSLSSYGVNWIRQPPGKALEWLGVIWGDGSTNYHSALISRLTISKDTSKSQVVLTLTNMDPVDTATYYCAKNYFYGSRYGYAMDSWGQGTTVTVSS
VL: DIQMTQSPSSLSASVGDRVTITCRASENIYSSLAWYQQKPGKAPKLLIYNAKTLIEGVPSRFSGSGSGTDFTLTISSLQPEDFATYYCQHHYGTPYTFGGGTKVEIK
notes: Only variable regions are tied to this name; also called M721-003
B2: h1719-014 (antibody, V domains shown)
VH: B1 VH with N35S, I37V, A44G, S56N, A62V, F100Y, A108P, M109L, S111Y
VL: DIQMTQSPSSVSASVGDRVTITCKATQDVGTAVAWYQQKPGKSPKLLIYWASTRHTGVPERFSGSGSGTDFTLTISSLQPEDFATYFCQQYGSSVLTFGGGTKVEIK
notes: Only variable regions are tied to this name; also called M719-014
B3: h1719-006 (antibody, V domains shown)
VH: B1 VH with N35S, I37V, A44G, S56N, A62V, Y99N, F100Y, A108P, S111Y
VL: B2 VL
notes: also called M719-006
B4: h1722-010 (antibody, V domains shown)
VH: EVQLVQSGAEVKKPGSSVKVSCKASGGTFSDYWMHWVRQAPGQGLEWIGMLHPNSGTTSFNEKFKIRVTITADKSTSTAYMELSSLRSEDTAVYYCASDYSGPFAYWGQGTLVTVSS
VL: DIQLTQSPSSLSASVGDRVTITCSASSSVNYIHWYQQKPGKAPKRWIFDTSKLASGVPSRFSGSGSGTDYTLTISSLQPEDFATYYCQQWRSNPLTFGQGTKLEIK
notes: Only variable regions are tied to this name; also called M722-010
B5: h1722-018 (antibody, V domains shown)
VH: B4 VH with N54Q
VL: B4 VL
B6: h1722-006 (antibody, V domains shown)
VH: B4 VH
VL: B4 VL with L4M, F48Y, Y70F
notes: Only variable regions are tied to this name
B7: h1722-017 (antibody, V domains shown)
VH: B4 VH with N54K
VL: B4 VL
B8: h1718-012 (antibody, V domains shown)
VH: EVQLVQSGAEVKKPGASVKVSCKASGYTITDYNMNWVRQAPGQRLEWIGVINPSYGITDYNQNFKDRVTITVDTSASTAYMELSSLRSEDTAVYYCAIQLRLPGYFDVWGQGTTVTVSS
VL: DIQMTQSPSSLSASVGDRVTITCKASQDINQYLNWFQQKPGKAPKTLIYRANRLVDGVPSRFSGSGSGQDYTLTISSLQPEDFATYYCLKYDEFPYTFGGGTKVEIK
notes: as for B6
B9: ch1720 (antibody, human IgG4 S228P, kappa, V domains shown)
VH: EFQLQQSGPELVKPGASVKISCKASAYSLTDYNMNWVKQSNGKSLEWIGVINPSYGISSYNQKFKGKATLTVDQSSSTAYMHLNSLTSEDSAVYYCARQLRLPGYFDVWGTGTTVTVSS
VL: DIKMTQSPSSKNASLGERVTITCKASQDINSYLNWFQQKPGKSPKTLIYRASRLVDGVPSRFSGSGSGQDYSLTISSLEYEDMGIYYCLKYDEFPYTFGGGTKLEIKR
notes: also called chimeric antibody corresponding to m1720
B10: ch1718 (antibody, human IgG4 S228P, kappa, V domains shown)
VH: B9 VH with L29I, S58T, S59D, K63N, G66D, H82Q, R98I, T116I
VL: B9 VL with K11M, N12Y, S31N, S52N, L104V
notes: also called chimeric antibody corresponding to m1718
B11: ch1719 (antibody, human IgG4 S228P, kappa, V domains shown)
VH: QVQLKESGPGLVAPSQSLSITCTVSGFSLISYGVSWVRQPPGKGLEWLGVIWGDGNTNYHSVLISRLSIRKDDSKSQVFLKLNSLQTDDTATYYCAKNNYYGSRYGYPMDYWGQGTSVTVSS
VL: DIVMTQSHKFMSTSVGDRVSITCKATQDVGTAVAWYQQKPGHSPKLLIYWASTRHTGVPERFTGSGSGTDFTLTIDNVQSEDLADYFCQQYGSSVLTFGAGTKVELRR
notes: also called chimeric antibody corresponding to m1719
B12: ch1721 (antibody, human IgG4 S228P, kappa, V domains shown)
VH: B11 VH with S35N, N56S, V62A, R70S, K81N, N99Y, Y100F, P108A, Y111S, T116I
VL: DIQMTQSPASLSAAVGETVTITCRASENIYSSLAWYQQKQGKSPQLLVYNAKTLIETVASRFSGSGSGTQYSLKINSLQPEDFGSFYCQHHYGTPYTFGGGTKLEIKR
notes: also called chimeric antibody corresponding to m1721
B13: ch1722 (antibody, human IgG4 S228P, kappa, V domains shown)
VH: QVQLQQPGAELVKPGTSVKLSCKASGNTFIDYWMHWVKQRPGQGLEWIGMLHPNSGTTSFNEKFKIKTTLTIDKSSSTAYMQLSSLTSEDSAIYYCASDYSGPFAYWGQGTLVTVSA
VL: QIVLTQSPGIMSAFPGEKVTMTCSASSSVNYIHWYQQKSGTSPKRWIFDTSKLASGVPARFSGSGSGTSYSLTISSMEAEDAATYYCQQWRSNPLTFGAGTKLELKR
notes: also called chi722; chimeric antibody corresponding to m1722

target: T1, CD96 extracellular region with His tag …; assay: blocking cell ELISA: antibody premixed with Bio-CD96-His (0.5 ug/mL), binding to fixed CD155-CHO cells
Procedure: CD155-CHO cells (constructed by Shanghai Hengrui) were seeded in 96-well culture plates at a density of 9×10⁴/100 μL/well and cultured overnight. After aspirating the supernatant, the plate was washed once with PBS, 100 μl/well of immunostaining fixation solution (Biyuntian, Cat No. P0098) was added and fixed for one hour at room temperature, and the plate was washed three times with PBS. After discarding the liquid, 250 μl/well of 5% skim milk (BD, Cat No. 232100) blocking solution diluted with PBS was added, and the plate was blocked in an incubator at 37° C. for 2.5 hours. After blocking, the blocking solution was discarded, subsequently, the plate was washed 4 times with PBST buffer (pH 7.4 PBS containing 0.05% tween-20). 50 μl/well of antigen-antibody pre-incubation solution (gradient concentrations of the hybridoma antibody to be tested and CD96-Fc at a final concentration of 0.5 μg/mL were premixed at 37° C. for 30 minutes, or gradient concentrations of humanized antibody samples and Bio-CD96-His at a final concentration of 0.5 μg/mL were premixed at 37° C. for 30 minutes) (Biotin-labeled kit, Dongren Chemical, Cat No. LK03) was added, and the plate was incubated in an incubator at 37° C. for 2 hours. After incubation, the reaction solution in the microtiter plate was discarded, the plate was washed 4 times with PBST, and 50 μl/well of HRP-labeled goat anti-human secondary antibody (Jackson Immuno Research, Cat No. 109-035-003) diluted with sample dilution or HRP-labeled streptavidin diluted with sample dilution (Sigma, Cat No. 52438) was added, followed by incubating at 37° C. for 1 hour. After washing the plate 4 times with PBST, 50 μl/well of TMB chromogenic substrate (KPL, Cat No. 52-00-03) was added, the plate was incubated at room temperature for 10-20 minutes, followed by adding 50 μl/well of 1M H₂SO₄ to stop the reaction. The absorption value was read at 450 nm with a NOVOStar microplate reader, and the EC50 value of the effect of CD96 antibody on blocking the binding between the antigens and CD155-CHO cells was calculated (see FIG. 2 and Table 16).

Row | Binder | IC50 [nM]
1 | B1 | 0.155
2 | B2 | 0.046
3 | B3 | 0.064
4 | B4 | 0.207
5 | B5 | 0.134
6 | B6 | 0.398
7 | B7 | 0.135
8 | B8 | 0.133

Target: T2, Monkey CD96-3xFlag (cyno-CD96-3xFLAG)
Assay: ELISA, cyno-CD96-3xFLAG coated
Procedure: The cross-reactive binding capacity of the anti-CD96 antibody to monkey CD96 was tested by ELISA to determine the binding of the antibody to cynomolgus CD96 protein. The 3×FLAG-tagged CD96 fusion protein was used to coat the microtiter plate, and the intensity of the signal after adding with the antibody was used for evaluating the binding activity of the antibody and cynomolgus CD96. The specific experimental method is as follows:
cyno-CD96-3×FLAG with the amino acid sequence of SEQ ID NO: 95 prepared in Embodiment 4 was diluted to a concentration of 2 μg/ml with PBS buffer (Shanghai Yuanpei Biotechnology Co., Ltd. Cat No. B320), pH 7.4, added to a 96-well microtiter plate (Corning, Cat No. CLS3590-100EA) at a volume of 50 μl/well, and placed in an incubator at 37° C. for 2 hours. After discarding the liquid, 250 μl/well of 5% skim milk (BD, 232100) blocking solution diluted with PBS was added, and the plate was incubated in an incubator at 37° C. for 2.5 hours or at 4° C. overnight (16-18 hours) for blocking. After blocking, the blocking solution was discarded, and the plate was washed 4 times with PBST buffer (pH 7.4 PBS containing 0.05% tween-20). 50 μl/well of different concentrations of the antibodies to be tested (hybridoma purification antibody or humanized antibody) diluted with sample dilution was added, and the plate was incubated in an incubator at 37° C. for 1 hour. […] After washing the plate 4 times with PBST, 50 μl/well of TMB chromogenic substrate (KPL, Cat No. 52-00-03) was added, and the plate was incubated at room temperature for 5-15 minutes, followed by adding 50 μl/well of 1M H₂SO₄ to stop the reaction. The absorption value was read at 450 nm with a NOVOStar microplate reader, and the EC50 value of the binding of CD96 antibody to monkey CD96 was calculated (see Table 14).

Row | Binder | EC50 [nM]
9 | B9 | 0.096
10 | B10 | 0.068
11 | B1 | 0.037
12 | B2 | 0.065
13 | B11 | 0.047
14 | B12 | 0.046
15 | B4 | 0.047
16 | B5 | 0.051
17 | B7 | 0.047
18 | B8 | 0.075
19 | B13 | 0.05
